Reference: patent US5811098, “Antibodies to HER4, human receptor tyrosine kinase” (Bristol-Myers Squibb Company, dated 1998)

T1: p45, HER4 ligand purified from HepG2 conditioned medium (human, UniProt Q02297, 125I-labeled Bolton-Hunter reagent (in the binding and cross-linking assays))
T1 sequence: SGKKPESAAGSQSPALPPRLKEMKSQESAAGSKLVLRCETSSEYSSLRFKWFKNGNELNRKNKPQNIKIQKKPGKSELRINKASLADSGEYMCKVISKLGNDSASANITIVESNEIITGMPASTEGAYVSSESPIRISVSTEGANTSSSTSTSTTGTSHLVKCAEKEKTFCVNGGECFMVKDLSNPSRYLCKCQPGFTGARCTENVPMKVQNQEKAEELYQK

B1: HAR-TX β2, chimeric heregulin-toxin protein (other)
chain: MVVKPPQNKTESENTSDKPKRKKKGGKNGKNRRNRSHLIKCAEKEKTFCVNGGECFTVKDLSNPSRYLCKCPNEFTGDRCQNYVMASFYKAEELYKLMAEEGGSLAALTAHQACHLPLETFTRHRQPRGWEQLEQCGYPVQRLVALYLAARLSWNQVDQVIRNALASPGSGGDLGEAIREQPEQARLALTLAAAESERFVRQGTGNDEAGAANADVVSLTCPVAAGECAGPADSGDALLERNYPTGAEFLGDGGDVSFSTRGTQNWTVERLLQAHRQLEERGYVFVGYHGTFLEAAQSIVFGGVRARSQDLDAIWRGFYIAGDPALAYGYAQDQEPDARGRIRNGALLRVYVPRSSLPGFYRTSLTLAGGEAAGEVERLIGHPLPLRLDAITGPEEEGGRLETILGWPLAERTVVIPSAIPTDPRNVGGDLDPSSIPDKEQAISALPDYASQPGKPPREDLK
B2: HER4/p180erbB4 (human prototype HER4) (receptor)
chain: QSVCAGTENKLSSLSDLEQQYRALRKYYENCEVVMGNLEITSIEHNRDLSFLRSVREVTGYVLVALNQFRYLPLENLRIIRGTKLYEDRYALAIFLNYRKDGNFGLQELGLKNLTEILNGGVYVDQNKFLCYADTIHWQDIVRNPWPSNLTLVSTNGSSGCGRCHKSCTGRCWGPTENHCQTLTRTVCAEQCDGRCYGPYVSDCCHRECAGGCSGPKDTDCFACMNFNDSGACVTQCPQTFVYNPTTFQLEHNFNAKYTYGAFCVKKCPHNFVVDSSSCVRACPSSKMEVEENGIKMCKPCTDICPKACDGIGTGSLMSAQTVDSSNIDKFINCTKINGNLIFLVTGIHGDPYNAIEAIDPEKLNVFRTVREITGFLNIQSWPPNMTDFSVFSNLVTIGGRVLYSGLSLLILKQQGITSLQFQSLKEISAGNIYITDNSNLCYYHTINWTTLFSTINQRIVIRDNRKAENCTAEGMVCNHLCSSDGCWGPGPDQCLSCRRFSRGRICIESCNLYDGEFREFENGSICVECDPQCEKMEDGLLTCHGPGPDNCTKCSHFKDGPNCVEKCPDGLQGANSFIFKYADPDRECHPCHPNCTQGCNGPTSHDCIYYPWTGHSTLPQHARTPLIAAGVIGGLFILVIVGLTFAVYVRRKSIKKKRALRRFLETELVEPLTPSGTAPNQAQLRILKETELKRVKVLGSGAFGTVYKGIWVPEGETVKIPVAIKILNETTGPKANVEFMDEALIMASMDHPHLVRLLGVCLSPTIQLVTQLMPHGCLLEYVHEHKDNIGSQLLLNWCVQIAKGMMYLEERRLVHRDLAARNVLVKSPNHVKITDFGLARLLEGDEKEYNADGGKMPIKWMALECIHYRKFTHQSDVWSYGVTIWELMTFGGKPYDGIPTREIPDLLEKGERLPQPPICTIDVYMVMVKCWMIDADSRPKFKELAAEFSRMARDPQRYLVIQGDDRMKLPSPNDSKFFQNLLDEEDLEDMMDAEEYLVPQAFNIPPPIYTSRARIDSNRSEIGHSPPPAYTPMSGNQFVYRDGGFAAEQGVSVPYRAPTSTIPEAPVAQGATAEIFDDSCCNGTLRKPVAPHVQEDSSTQRYSADPTVFAPERSPRGELDEEGYMTPMRDKPKQEYLNPVEENPFVSRRKNGDLQALDNPEYHNASNGPPKAEDEYVNEPLYLNTFANTLGKAEYLKNNILSMPEKAKKAFDNPDYWNHSLPPRSTLQHPDYLQEYSTKYFYKQNGRIRPIVAENPEYLSEFSLKPGTVLPPPPYRHRNTVV

Key:
HER3/p160erbB3 (human) = HER3/p160erbB3 (human) (human); assay: cell-based or functional assay
HER2/p185erbB2 (human) = HER2/p185erbB2 (human) (human); assay: cell-based or functional assay
[1] = biological target: T1, p45, HER4 ligand purified from HepG2 …; assay: binding of 125I-p45 to CHO/HER4 cell monolayers, 2 h at 4° C, Scatchard analysis (LIGAND program)

Row | Binder | EC50 of cytotoxicity, H3396 cells (HER3/p160erbB3 (human)) | EC50 of cytotoxicity, L2987 cells (HER3/p160erbB3 (human)) | EC50 of cytotoxicity, SK0V3 cells (HER3/p160erbB3 (human)) | EC50 of cytotoxicity, H3396 cells (HER2/p185erbB2 (human)) | EC50 of cytotoxicity, L2987 cells (HER2/p185erbB2 (human)) | EC50 of cytotoxicity, SK0V3 cells (HER2/p185erbB2 (human)) | Kd [1]
1 | B1 | > 2 µg/mL | > 2 µg/mL | > 2 µg/mL | > 2 µg/mL | > 2 µg/mL | > 2 µg/mL | –
2 | B2 | – | – | – | – | – | – | ~5 nM
